Values belong to the molecule of their own block, whether it stands above or below them.
What was measured:
[1] = biological target: Seleno-methionine (Se-Met) substituted BioH3 protein (Mycobacterium smegmatis MC2 155) (UniProt A0R6Y0); test: crystal structure; Se-substituted BioH3, sitting-drop vapor diffusion at 16°C; 20 mM citric acid, 80 mM Bis-Tris propane pH 8.8, 16% PEG3350; SAD; space group P2(1), six molecules per asymmetric unit
[2] = biological target: the molecule itself; test: SEC; Superdex 200 Increase column; protein dialyzed in 20 mM Tris-HCl (pH 8.0), 150 mM NaCl and concentrated to ~15 mg/ml

stoichiometry N [1]: 2
Molecule: Seleno-methionine (Se-Met) substituted BioH3 protein (from UniProt A0R6Y0 1-282) (enzyme)

B1: BioH2 (MSMEG_1352) of M. smegmatis MC2 155, hexa-histidine-tagged (enzyme, Mycobacterium smegmatis MC2 155, UniProt A0QS51 1-305, looked up)
chain: MQTRTGLARAGDADHPIDLFYEDMGDPGDPAVLLIMGLGAQMLMWRTEFCEKLVDQGLRVIRFDNRDVGLSTKLSGQRVDSPLALRMARSFLGKRSPAVYTLEDMADDAAALLDHLEIDRAHIVGGSMGGMIAQVFASQHAARTETLGVIFSSNNQALLPPPGIRQLLSLITGPPADASRDAVLDNAVRLSRLNGSPAYPRSEEEIRAEAAELYDRAYYPAGIARHFAAILGSGSLRHHNERVTAPTVVIHGRADRLMPPSGGRAIANAIRGARMVLIDGMGHELPEPVWDEVIGELKTNFAVVG
notes: BioH2, product of MSMEG_1352 of Mycobacterium smegmatis MC2 155; source: E. coli BL21(DE3), pET28a, purified (nickel column, dialysis)
binding result [2]: binds
